According to IntAct's records for PubMed 10488108:

B1: E3 ubiquitin-protein ligase COP1 (Arabidopsis thaliana (Mouse-ear cress)), P43254 (parent)
chain: MEEISTDPVVPAVKPDPRTSSVGEGANRHENDDGGSGGSEIGAPDLDKDLLCPICMQIIKDAFLTACGHSFCYMCIITHLRNKSDCPCCSQHLTNNQLYPNFLLDKLLKKTSARHVSKTASPLDQFREALQRGCDVSIKEVDNLLTLLAERKRKMEQEEAERNMQILLDFLHCLRKQKVDELNEVQTDLQYIKEDINAVERHRIDLYRARDRYSVKLRMLGDDPSTRNAWPHEKNQIGFNSNSLSIRGGNFVGNYQNKKVEGKAQGSSHGLPKKDALSGSDSQSLNQSTVSMARKKRIHAQFNDLQECYLQKRRQLADQPNSKQENDKSVVRREGYSNGLADFQSVLTTFTRYSRLRVIAEIRHGDIFHSANIVSSIEFDRDDELFATAGVSRCIKVFDFSSVVNEPADMQCPIVEMSTRSKLSCLSWNKHEKNHIASSDYEGIVTVWDVTTRQSLMEYEEHEKRAWSVDFSRTEPSMLVSGSDDCKVKVWCTRQEASVINIDMKANICCVKYNPGSSNYIAVGSADHHIHYYDLRNISQPLHVFSGHKKAVSYVKFLSNNELASASTDSTLRLWDVKDNLPVRTFRGHTNEKNFVGLTVNSEYLACGSETNEVYVYHKEITRPVTSHRFGSPDMDDAEEEAGSYFISAVCWKSDSPTMLTANSQGTIKVLVLAA
partner: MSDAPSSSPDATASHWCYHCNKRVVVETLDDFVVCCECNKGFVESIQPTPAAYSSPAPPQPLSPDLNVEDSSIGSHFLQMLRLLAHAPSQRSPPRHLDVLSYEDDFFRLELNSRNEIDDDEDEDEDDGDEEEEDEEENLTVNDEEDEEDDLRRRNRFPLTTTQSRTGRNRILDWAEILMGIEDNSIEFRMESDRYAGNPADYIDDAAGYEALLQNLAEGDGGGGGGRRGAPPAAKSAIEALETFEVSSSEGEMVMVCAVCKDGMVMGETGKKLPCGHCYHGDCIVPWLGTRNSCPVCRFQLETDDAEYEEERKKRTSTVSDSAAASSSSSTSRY
B2: E3 ubiquitin-protein ligase CIP8 (Arabidopsis thaliana (Mouse-ear cress)), Q9SPL2 (parent)
chain: B1 partner
partner: B1 chain

Variants of: B1
Conditions: with cip8_arath CIP8, Q9SPL2

effect of a mutation on the interaction	Variant
disrupting interaction	C67A;H69A;C72A;C75A

Variants of: B2
Conditions: with cop1_arath COP1, P43254

effect of a mutation on the interaction	Variant
disrupting interaction	C275A;H277A;H280A;C283A
